Test results as given in the supplement of paper PMC10567573.

B1: KCNA3 (parent)
chain: YQSGGRIRRPVNVPIDIFSEEIRF
B2: HDAC6 (parent)
chain: DLMETTQYMNEGELRVLADTYDSV

Variants of: B1
Test: protein stability index of a GFP-peptide fusion (GPS, HEK-293T) (PSI 1-6); higher = more stable
Conditions: c terminus: a fixed tail appended
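Note: lentivirally expressed fusions sorted by FACS into six bins by GFP to DsRed ratio, PSI derived from sequencing read proportions per bin multiplied by bin number.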

Protein stability index, by site and new letter:
G5: Q 2.5, I 1.94, W 3.41, N 2, F 1.68, P 2.32, E 2.58, S 2.37, V 2.05, K 2.2, L 2.09, C 1.91, M 1.37, A 2.38, R 2.08, D 2.02, H 2.9, Y 1.49, T 2.54
I7: Y 2.04, M 2.44, F 1.62, W 2.77, D 2.92, T 1.91, N 1.73, R 1.86, C 2.38, Q 2.52, V 2.4, S 2.38, A 2.83, H 1.57, P 2.51, E 2.17, K 3.34, G 2.41, L 1.69
G4: F 1.83, W 2, P 2.21, E 2.73, D 2.07, N 1.92, H 1.97, V 2.05, S 3.01, A 1.69, T 2.28, K 2.82, I 2.06, Y 1.79, L 2.31, R 2.15, Q 2.37, M 2.1, C 1.93
P10: M 1.62, W 2.7, I 1.78, T 2.83, K 1.33, G 2.48, V 1.91, N 1.64, Q 1.53, S 2.43, D 1.87, E 2.02, C 2.03, R 1.64, Y 1.76, L 1.6, F 1.39, A 2.31
R9: Y 1.72, T 2.48, D 1.62, G 2.23, F 1.81, M 1.61, I 2.27, N 2.12, C 2.35, A 2.45, V 1.41, S 2.06, E 2.26, Q 1.87, H 3.44, P 2.26, K 1.78, L 2.05
Q2: C 2.19, R 2.07, T 2.47, I 1.22, F 1.79, K 1.92, M 2.04, L 2.41, N 2.52, A 2.35, S 1.96, D 2.74, H 3.93, V 1.94, W 1.87, E 2.33, P 2.07, G 2.7, Y 2.46
S3: A 2.82, R 2.59, V 2.01, P 2.22, F 1.64, Q 2.44, K 2.24, E 2.93, G 1.81, Y 2.21, C 1.46, W 2.27, L 2.23, D 2.41, M 1.56, T 2.06, H 2.84, N 2.23, I 1.58
V11: D 1.69, F 2.02, M 2.01, H 1.66, L 1.44, E 3.13, G 1.79, C 2.39, I 1.7, K 1.85, A 2.49, N 2.42
R8: H 4.19, F 2.03, Y 3.3, P 2.02, T 2.07, I 3.3, K 2.47, N 2.2, L 1.26, A 2.57, D 2.13, C 2.03, S 1.44, Q 1.67, V 1.77, M 2.03, E 2.3
R6: S 2.08, Y 1.86, Q 2.79, G 1.85, W 1.86, D 2.15, K 1.59, A 1.9, F 1.65, P 1.91, L 1.31, N 2.11, T 1.76, V 1.95, C 1.85, H 2.23, E 2.34, I 1.9
Y1: G 2.83, Q 2.76, P 3.43, E 2.74, I 2.53, R 2.67, F 1.83, T 2.55, S 3.58, M 2.42, D 3.1, L 2.08, H 2.98, K 2.77, V 2.58, N 2.89, W 2.48, A 3.31, C 2.49

Variants of: B2
Test: as above
Conditions: c terminus: a fixed tail appended

Protein stability index of substitutions, site by site:
D19: K 2.52, R 2.56, F 2.78, T 1.83, Y 1.44, S 2.12, N 1.79, G 2.6, P 2.67, Q 1.92, H 2.42, I 2.55, L 1.64, E 2.03
D22: T 1.65, Y 2.7, L 2.14, S 1.55, R 2.91, F 1, N 1.48, P 1.92, H 2, V 1.74, E 1.57, I 2.16, Q 2.29, A 1.27, C 2.18, K 1.75, G 1.76
V16: Y 3.9
A18: M 1.12, F 1.86, T 1.94, P 3.97, I 1.83, V 2.4, K 2.18, G 2.86, S 2.09, H 2.06, Q 1.62, N 1.65, R 2.12, L 1.75, E 2.11, Y 1.87, D 2.82, W 1.7, C 2.47
V24: Q 1.84, T 1.63, G 2.1, N 2.77, R 1.86, M 2.24, K 1.77, S 1.56, E 2.01, I 2.34, C 1.42, P 2.11, H 2.78, A 1.73, L 2.11, D 2.41, Y 1.49, F 1.92, W 1.66
S23: K 2.03, R 2.14, E 1.97, H 2.37, V 1.63, Q 1.24, W 3.46, L 1.94, P 1.46, G 2.72, Y 1.58, M 2.33, T 2.05, I 1.86, C 2.48, N 2.66, D 1.92
L17: A 2.33, N 4.55, K 2.75, D 5.03, M 2.01, S 4.34, P 4.47, G 3.86, R 2.97, F 2.05, H 2.12, Y 1.99, T 3.59, W 2.33, Q 3.11, C 3.03, V 1.64, I 2.77
Y21: P 2.04, M 1.44, H 1.72, F 2.24, S 2.26, W 2, A 2.69, K 2.74, G 2.66, N 1.61, Q 3.21, C 2.2, D 3.31, T 3.1, I 1.79, L 1.96
T20: Y 2.06, D 2.83, I 2.91, N 2.21, H 2.71, P 1.99, R 3.07, A 2.49, E 2.41, F 2.27, Q 2.58, M 1.62, K 1.96, L 1.04, W 1.77, S 2.13
